Measurements as given in US20040096852A1, “Mixed fibrils” (priority 2000, published 2004).
Ends that are not written are not given here. * marks the point of attachment. Dansyl = CN(C)c1cccc2c(S(=O)(=O)*)cccc12

Tests used:
[1] = pH 2.5
From the text: Where the proteins forming the fibrils are unrelated the kinetics of fibril formation are likely to be different.

[2] = Solubility of peptide under labeling conditions; type: physicochemical
Protocol: TTR10-19 labeling with fluorescein. The N-terminal cysteine residue of TTR10-19 was the target for labeling by the thiol-reactive fluorophore fluorescein-5-maleimide (F5M; Molecular Probes, Eugene, Oreg.). TTR10-19 was resuspended at 1 mg/ml in H2O, and the cysteine residue reduced by the addition of a 10-fold molar excess of tris-(2-carboxyethyl) phosphine (TCEP; Molecular Probes, Eugene, Oreg.) and incubation for 1 h at room temperature. F5M in DMSO was added to the peptide solution to give a 10-fold molar excess of fluorophore over peptide in a final concentration of 10% DMSO. Under these conditions TTR10-19 was fully soluble. The mixture was incubated overnight at 4° C. to ensure maximum labeling. The labeling mixture was then applied to a disposable SepPak C-18 reverse-phase chromatography column (Waters, Milford, Mass.) and washed with H2O/CH3CN (90:10 v/v). TCEP and unreacted label eluted in the wash. The peptide was then eluted from the column with H2O/CH3CN (40:60 v/v), and a mixture of labeled and unlabelled peptide was detected by MALDI-TOF mass spectrometry. […]
TTR105-115 labeling with dansyl chloride. […] The peptide was then eluted from the column with H2O/CH3CN (50:50 v/v), and a mixture of labeled and unlabelled peptide was detected by MALDI-TOF mass spectrometry. […]

TTR10-19 [3] = molecular target: T1, TTR10-19 (human); assay: fluorescence anisotropy of labeled peptide co-assembled into fibrils (free peptide 0.02)
T1 construct: Unlabelled synthetic peptide, present as amyloid fibrils in the assays; also called TTR10-19 fibrils
T1 peptide: CPLMVKVLDA

TTR105-115 [4] = molecular target: T2, TTR105-115 (human); assay: as above
T2 construct: Unlabelled synthetic peptide, present as amyloid fibrils in the assays
T2 peptide: YTIAALLSPYS

Bovine insulin [5] = molecular target: T3, Bovine insulin (bovine, UniProt P01317 85-105; P01317 25-54); assay: as above
T3 construct: mature; Bought protein, assembled into amyloid fibrils at low pH and high temperature; also called insulin fibrils

TTR10-19 [6] = molecular target: T1, TTR10-19; assay: fluorescence anisotropy of labeled peptide co-assembled into fibrils (free peptide 0.03)
TTR105-115 [7] = molecular target: T2, TTR105-115; assay: as above
Bovine insulin [8] = molecular target: T3, Bovine insulin; assay: as above

T3 sequence (P01317 85-105 limits assumed, chain 1 of 2): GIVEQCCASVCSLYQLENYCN
T3 sequence (P01317 25-54 limits assumed, chain 2 of 2): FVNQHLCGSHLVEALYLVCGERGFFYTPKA

With CPLMVKVLDA [TTR10-19] as the molecule, how does the time remaining soluble [1] read?
Its time remaining soluble is 48 h.

And the solubility ([2]; 1 mg/ml in H2O, TCEP, F5M, final 10% DMSO)?
The solubility was “fully soluble”.

With YTIAALLSPYS [TTR105-115] as the molecule, how does the time remaining soluble [1] read?
The time remaining soluble was 48 h.

And the solubility ([2]; 1 mg/ml in H2O/CH3CN (80:20 v/v), dansyl chloride, 10% DMSO, pH 9.0)?
The solubility was “fully soluble”.

B1: dansyl-TTR105-115 (peptide)
peptide: Dansyl-YTIAALLSPYS
notes: Synthetic peptide derived from human transthyretin
Which “fluorescence anisotropy on incorporation into fibrils” value (“fluorescence anisotropy” for short) (TTR10-19 [3]) does the source give for B1 here?
The value was 0.16.

What about the “fluorescence anisotropy” value (TTR105-115 [4]) of the same molecule?
Its value is 0.13.

What about the “fluorescence anisotropy” value (Bovine insulin [5]) of the same molecule?
The value was 0.19.

B2: F5M-TTR10-19 (peptide)
peptide: C(fluorescein‑5‑maleimide)PLMVKVLDA
notes: Synthetic peptide derived from human transthyretin; also called fluorescein-5-maleimide labeled TTR10-19
What does the source list for B2?
fluorescence anisotropy on incorporation into fibrils (TTR10-19 [6]): 0.17; fluorescence anisotropy on incorporation into fibrils (TTR105-115 [7]): 0.22; fluorescence anisotropy on incorporation into fibrils (Bovine insulin [8]): 0.16
